From PMC4964339 (Scientific Reports, 2016) come the findings set out here.

This experiment deals with T1, human claudin-4 (residues 1-183), tag-free (human, UniProt O14493 1-183).
T1 construct: also called tag-free claudin-4
T1 sequence (looked up): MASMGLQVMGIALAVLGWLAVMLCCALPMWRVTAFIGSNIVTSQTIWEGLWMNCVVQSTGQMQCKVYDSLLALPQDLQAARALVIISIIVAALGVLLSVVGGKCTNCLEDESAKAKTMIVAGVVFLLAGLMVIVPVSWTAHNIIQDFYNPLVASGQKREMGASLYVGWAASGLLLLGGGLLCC
In words: SPR. As to conditions: both partners purified.

B1: GST-tagged C-CPE (C-terminal fragment of Clostridium perfringens enterotoxin, residues 185-319) (domain or fragment)
chain: RCVLTVPSTDIEKEILDLAAATERLNLTDALNSNPAGNLYDWRSSNSYPWTQKLNLHLTITATGQKYRILASKIVDFNIYSNNFNNLVKLEQSLGDGVKDHYVDISLDAGQYVLVMKANSSYSGNYPYSILFQKF
B1: binding was characterised by a dissociation constant (Kd) of 3.4 nM.
